± gives the uncertainty stated by the source.
Assay: amyloid nucleation score (Sup35N fusion, yeast selection) (log enrichment); library NNK2; higher = more nucleation; inactive = no reads after selection
In short: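 Peptides of 20 random codons, each fused to Sup35N, were expressed in psi-negative yeast. Cells were induced with 100 μM copper sulfate for 24 hours and grown 7 days at 30°C on medium lacking adenine and uracil, and plasmid inserts before and after selection were Illumina-sequenced. Nucleation scores are DiMSum log enrichments of output over input reads, centred on the mode score of non-aggregating sequences, and sequences under 100 input reads were excluded.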

Row | Substance | amyloid nucleation score
1 | LHIMVFQYLKWHTAI | -0.07 ± 0.49
2 | LHMCHWDSYSE | 1.36 ± 0.35
3 | LHNDLLKVNSERENNNDLGS | 0.089 ± 0.5
4 | LHQGKPYITLALYRFLHGSR | -1.15 ± 1.1
5 | LHRYRNAQVSWE | -0.512 ± 0.74
6 | LHSYVFTKGSRTQCRWRKNP | 0.07 ± 0.28
7 | LICGARYINFSGKGNY | 0.023 ± 0.29
8 | LILDILSRGSAYYDCTRMKG | inactive
9 | LILSSSSLVGVALRRVYCVT | -0.809 ± 0.34
10 | LILTCPCMCRFYVWGSTQYR | -0.313 ± 0.39
11 | LILTFLEWNLFFYSFNIFTY | 5.39 ± 0.078
12 | LIPLIVLGGTDSFKELYGYE | -0.624 ± 0.61
13 | LISEVALGFAPMKIVRGFLD | -0.284 ± 0.56
14 | LISGRMHNVCEPGAKSRTLR | 0.76 ± 0.18
15 | LISVDFRYYGYVVLGWISTL | 0.807 ± 0.1
16 | LISWFWWENLKLCCSIFCFI | 4.4 ± 0.051
17 | LITINLSV | 8.427 ± 0.049
18 | LIVCWGMWFLQW | -1.74 ± 1.1
19 | LKDVGPYQRVRRGTVRYA | 0.756 ± 0.4
20 | LKLFNGVRPKNGM | -1.6 ± 0.75
21 | LKLYPGIFIICVRTMDFVFW | inactive
22 | LKNVCFCIWRISWNKISQKI | inactive
23 | LKPCLRFFNIIT | 3.44 ± 0.1
24 | LKQDKGITGEVVGVRILGS | 0.22 ± 0.32
25 | LKTLIKDPMLYGQALSRVFC | -0.737 ± 1.1

Row | Substance | amyloid nucleation score
26 | LKWQSYG | 0.952 ± 0.28
27 | LLCFHTHLRKAMGVTINSIS | -1.19 ± 0.49
28 | LLCQITRVAIPCHVCGDDVA | 3.81 ± 0.13
29 | LLEYCCYFYRN | 3.57 ± 0.12
30 | LLFKMAYRPLWHDNNMMTCM | 0.112 ± 0.79
31 | LLFPM | 0.647 ± 0.8
32 | LLGLSGKYWIRGSKNSIFVW | 0.157 ± 0.39
33 | LLGQLKFLFLDVFLWLYVCS | 1.56 ± 0.22
34 | LLHGSLWAQSMSLCWLNVTG | 4.24 ± 0.088
35 | LLHNIDVRTSRME | -0.846 ± 0.44
36 | LLIKSSCFCSLDVFFS | 3.69 ± 0.089
37 | LLKKRANGYHYSKNLKCPAR | -1.29 ± 1.1
38 | LLKLNGILVCLDRGVMPHDS | 2.57 ± 0.092
39 | LLLGINSCQEQPKGSFEERH | -0.91 ± 1.1
40 | LLLIADYMSLVCCRAGVRDV | 0.215 ± 0.42
41 | LLLITVVIRCRSWVWGWLIS | -0.358 ± 0.74
42 | LLLPSAGKGSL | 0.219 ± 1
43 | LLMMRGSRVSNS | -0.763 ± 0.39
44 | LLMSCPLSLCSEGVTSLVEG | 1.29 ± 0.3
45 | LLNDFRQLNTRYDSRWGQWQ | 3.08 ± 0.058
46 | LLNILISRAYLWSGFFERFL | inactive
47 | LLNRSRSL | -0.723 ± 0.45
48 | LLPCLPLPFMSPITARATHI | 3.24 ± 0.058
49 | LLPSGIIH | -0.815 ± 0.5
50 | LLRDSVY | -0.817 ± 1.1

Row | Substance | amyloid nucleation score
51 | LLRRNFNYVYIIYLILSSPV | inactive
52 | LLRSLNLVG | 0.288 ± 0.65
53 | LLRTHTSYRL | -0.836 ± 0.55
54 | LLRVMLHISLVMC | -1.34 ± 0.53
55 | LLSFLMRSRRFLSTVKY | -0.931 ± 0.78
56 | LLVAALSHGPGISRSVNSHP | 5.91 ± 0.061
57 | LLWSTILMFWF | inactive
58 | LLYCCLRWMDSIQGLRPAFE | 1.1 ± 0.61
59 | LMDRLFMKCDGLAG | 0.216 ± 0.53
60 | LMKLNSTLSFDYFPLT | -0.166 ± 0.65
61 | LMLNWCTLGLVHC | 0.004 ± 0.61
62 | LMMSVWF | 5.48 ± 0.063
63 | LMRLDLGT | -0.518 ± 0.32
64 | LMSGVLGRWLKKSSKFQESL | -0.653 ± 1.1
65 | LMSYVSSRNVSLQFIFVLPL | 5.55 ± 0.069
66 | LMTSPSFIYVWSYTGFRMFG | 4.983 ± 0.042
67 | LMYKNCCWFLA | 8.256 ± 0.062
68 | LMYVCSLNNPLFMYANLL | 5.54 ± 0.084
69 | LNAWQKEINDALSPLSYPDS | 0.274 ± 1.1
70 | LNFKWANCVFVDSNCQQ | 3.13 ± 0.17
71 | LNHCG | 0.738 ± 0.55
72 | LNHIYYLAIQTTACILTMGE | -1.07 ± 0.63
73 | LNKMECPCLFCVCVAFVIEW | 5.38 ± 0.067
74 | LNLGILAFSKVKIGVFQFYE | 6.834 ± 0.037
75 | LNLSYIKAVTSRFAADYVL | 0.523 ± 0.18

Row | Substance | amyloid nucleation score
76 | LNNRISNVAAGSSLRIYLMD | 2.79 ± 0.062
77 | LNNSIYHLGKY | inactive
78 | LNRYYSLPRLSVPSSVRSCG | -1.18 ± 0.44
79 | LNSGCAVVLCADSRHSNEPD | -0.062 ± 0.65
80 | LNSPLIPVRLMGVVRFQLLD | -0.459 ± 0.39
81 | LNSTGAQQFRTVEVYTSMQW | 2.81 ± 0.11
82 | LNSYFTFVWTSVFGCVDPYE | 5.723 ± 0.035
83 | LNTIFTKIIGFSA | -1.52 ± 0.49
84 | LNVVARMFYLSLSSSGNWSG | -0.849 ± 0.64
85 | LNWTTGFSDSAPVICPDTMH | -1.56 ± 1.1
86 | LNYDNFE | inactive
87 | LNYLCVHTLIACVSWVPVSA | 2.36 ± 0.23
88 | LNYRCAWWMLATMMLKRLSC | 2.15 ± 0.31
89 | LPFFKIMVRSSYCCNYQG | 2.29 ± 0.065
90 | LPGSYNYKGSHSQTNWFLDK | -2.09 ± 1
91 | LPHLCCIIY | 2.56 ± 0.066
92 | LPIPIKETHLSCWAVDVGFD | -0.052 ± 0.2
93 | LPIRWVVVGEGSGVGRVWTW | 0.227 ± 0.3
94 | LPLKNRVVDTCRKRFVGEVG | -0.19 ± 1
95 | LPLYMTYACPVPTSIHRIIL | -0.06 ± 0.28
96 | LPMLRHTYNCFSVACIGIFC | -0.204 ± 0.3
97 | LPTFSPQ | 3.77 ± 0.13
98 | LPYYKHCNRLTNVTCLYKRR | 3.34 ± 0.15
99 | LQANWNDGPVGSSICAACSL | -0.746 ± 0.76
100 | LQMSGTSR | 0.265 ± 1.1

Row | Substance | amyloid nucleation score
101 | LQNFRCTGCVLFCMHICPAM | 4.84 ± 0.075
102 | LQVAARHHL | inactive
103 | LRESFKRWMLVVAATLYAFK | 0.376 ± 0.48
104 | LRFPRWSPADGDSILHTTSQ | 0.673 ± 0.66
105 | LRGHRPFLVY | -0.02 ± 1.1
106 | LRGRRRTVLPANGWCSLTAL | 0.453 ± 0.28
107 | LRIRYFSFDIIVLEGYIRSA | -0.205 ± 0.29
108 | LRLFFNYWSNWGATEKNYIL | -1.52 ± 1.1
109 | LRLLISV | 0.306 ± 0.25
110 | LRLWHDYSFFLNKVSQVHSY | -1.12 ± 1.1
111 | LRMSVVQLSVRESLLDNHDY | 1.78 ± 0.25
112 | LRNMPRVQQVCPYFINVRGK | 2.25 ± 0.082
113 | LRNRMAERDLYLYAICSAGL | 0.331 ± 0.55
114 | LRRASINCKMLGGDVGQVMW | 0.404 ± 0.66
115 | LRRSTKSSCGVRCWVIEMGS | 0.138 ± 1.1
116 | LRSEFRFIYLRLTWKVR | inactive
117 | LRSLGAGAIYMPALQCRSRS | 0.255 ± 0.5
118 | LSACIALASGYVGISGW | inactive
119 | LSAKSTCTAYNRAGSARTEY | -0.072 ± 1.1
120 | LSALCES | 0.98 ± 0.53
121 | LSALCGIGCDCLPTLTKLIV | -0.089 ± 0.25
122 | LSCCSLIPTHPRPRDNVNEC | 0.717 ± 0.23
123 | LSCNMFDPVGQWCCGKKVGA | 1.07 ± 0.42
124 | LSCWAYHVSWGWWHYIFAW | 1.11 ± 0.38
125 | LSDIRWMSCGGVL | -0.602 ± 1.1

Row | Substance | amyloid nucleation score
126 | LSFFMPDT | -1.53 ± 0.36
127 | LSFISRRDNDGYMICEYSLP | 0.264 ± 0.65
128 | LSGFKYWLRWL | inactive
129 | LSGFV | -0.554 ± 0.64
130 | LSGLRRPNRFLYT | -0.897 ± 0.43
131 | LSGRHY | 0.33 ± 0.74
132 | LSHKAEYLCVFSWACRIMGL | 0.155 ± 0.42
133 | LSHPVIGGETKFPDDRNSQF | 0.119 ± 0.19
134 | LSHRNPASRNYRPWQLNC | 0.245 ± 0.29
135 | LSLVNGLRDVFTSGWALRCW | 4.89 ± 0.05
136 | LSLYFFDL | 1.06 ± 0.36
137 | LSMELNGYYILVCDLDFVTE | 1.5 ± 0.16
138 | LSMELNVYVERWWFSKLDRG | -1.26 ± 0.49
139 | LSNLMRISMIFEYAAPLFRF | inactive
140 | LSPRSGNRTP | -0.436 ± 0.41
141 | LSPVVRSMKDVLQCESVDDR | 0.191 ± 0.5
142 | LSRFFFNRAPRKVTGLSVRY | 0.96 ± 0.21
143 | LSRSDAVRAFFRIMVLWKVV | -0.32 ± 0.63
144 | LSRVSE | -0.405 ± 0.39
145 | LSSKCYVA | -0.874 ± 1
146 | LSVLTNDSGLFKFGFIRCVW | -1.21 ± 0.75
147 | LSWAHVVICLIW | inactive
148 | LSYLML | -1.03 ± 0.78
149 | LSYNQD | -0.581 ± 0.64
150 | LSYNVLLGRIEIPWVSFSRM | 3.94 ± 0.068

Row | Substance | amyloid nucleation score
151 | LSYRVRCIRMNMLSSALGTM | inactive
152 | LTDSKSALRLAMR | 4.48 ± 0.039
153 | LTDVYMVI | -0.395 ± 0.76
154 | LTGALREFPIYSGANDIWWR | -0.796 ± 0.44
155 | LTIDTTFVITSRYTCQLWQR | 4.2 ± 0.056
156 | LTILFH | 4.84 ± 0.078
157 | LTLLFGRSVSEWVWNLMDRC | -0.461 ± 0.29
158 | LTPYEYCVYDCFLSLESVLF | inactive
159 | LTRPCITV | 0.193 ± 0.55
160 | LTSMEARLQMKVRDGFQNGE | 0.437 ± 0.49
161 | LTTGKLYFSLEMYT | -0.653 ± 0.63
162 | LTTMFFIMCHEFNLLAVFNY | 1.27 ± 0.26
163 | LTVRELLFTSRRHRARRHSC | 1.81 ± 0.32
164 | LTVVV | 0.709 ± 0.66
165 | LVAFLGQIEPSRTQRTLGSG | 0.001 ± 0.39
166 | LVDFNVLYNAGIIRLHTERY | 8.048 ± 0.07
167 | LVDNLR | -0.441 ± 1.1
168 | LVGDRNDVLPVFVRSRRRVP | 0.53 ± 0.56
169 | LVGRRWVFTDCKGFRASVNF | inactive
170 | LVGWSLHSITFPEWRGHNPK | -0.991 ± 1.1
171 | LVISLSISCAGKRVAQSHMG | -0.951 ± 0.76
172 | LVITTMDDLKCDRAVVGPMW | -0.174 ± 0.76

Reference: the supplement of paper PMC12042874
